From the domain aggregation screens of Martell et al. (2025)

Experiment: soluble fraction after stress (log2 fold change); higher = more stays soluble; pooled small domains, quantitative proteomics
Settings: stress: 50 degC
Outline: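 Quantitative proteomics served as the high-throughput read-out for pooled custom libraries of small protein domains. Each was stressed at 50°C. Aggregation propensity is expressed as the base-two log fold change in soluble protein after stress. A higher value means a larger share of the protein remains in solution.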

Sequence: HMSRLLERARDLMAKPGAWLSAEGGAYALRLSPDRRSRISLTLTETEFRALIDQPGLRVRPGGGWSGRA
- soluble fraction (log2): -3

Sequence: HMSRMGDSIKSLRSRNNMSQDALAEKLNVTRQAISNWENSKTQPDADTLKNLGIIFNVTVDEIINNDF
- soluble fraction (log2): 0.0528

Sequence: HMSRQREWIYDYIQSHPDRHMSVEEIYEGLKAENREVSVATVYRNLKILQDENRIASLMLESGKQVFDK
- soluble fraction (log2): -0.371

Sequence: HMSRREEALIALAQRVARQVARTKQPVTLEPMPANERRVIHVALRDNPDVETRSSGEGDQRRVTVYPRQ
- soluble fraction (log2): 0.05

Sequence: HMSRRIEIELTSSRPDGSWTWRAAGAREPKGVLDGTLLSQGSKPGDVVKAEAEFDIDGITIVSITQ
- soluble fraction (log2): -0.18

Sequence: HMSRSKLNRLDKIKKMLIAQTGISIKEFSASLNVSEITIRRDLNLLEEQGFIRLVNGVAIYRM
- soluble fraction (log2): -1.55

Sequence: HMSRSLEIDVLVKALLEQDRRKFMLVTDGTADVTVRYNNALPSLFREGQGVVAEGLMDNGKFIATNVLAK
- soluble fraction (log2): -0.631

Sequence: HMSRSLLAALEKLRESHTGSLPASVLSSAQRRSLESFAQTTKSVQMRPSGRGVVFAIINPEVVDKHWRELS
- soluble fraction (log2): -0.497

Sequence: HMSRSSQMVNFIRLLSQEKKVSVNSIFSSSVQLSDGIIVKINDFYYRVNLSLDQKTYSLVEVS
- soluble fraction (log2): -0.486

Sequence: HMSRVKQERLNRFVEAFEAYFRSVHPGEIDVEYLKSDEFGDIFESILHRVMHTASEEKMHRFKKILLNEM
- soluble fraction (log2): -2.13

Sequence: HMSSADIPFSRFIDDVEAQRVEKVTIDGVNVTGRYRSDGAAFKTIIPSQYDGLVPILRQNKVDITVKDA
- soluble fraction (log2): 0.123

Sequence: HMSSAMDMISRDVRNADSISISTTTYSKKIDLYNFDRNGDIEELHSYSAKNDLGILYNDEPI
- soluble fraction (log2): -0.276

Sequence: HMSSANIKLDPLERQATQQIINNIKRKYPNATIENLQEVANDAIATMRQPEFSNYTVDKFVSYFLSM
- soluble fraction (log2): -0.333

Sequence: HMSSARKVTVRGVRELPGIFMEKAEILDDGVRFFYRGEMEKLIGALQGLPIRDLTITEPDLEEVFLHFY
- soluble fraction (log2): -1.09

Sequence: HMSSASETQYELALQAMRDGDNDAALRSLSTALASGFSDWQRIDEEPLLAALANDVRFQVLRSRWK
- soluble fraction (log2): 0.0414

Sequence: HMSSDLVDYLVKYVAIVDNQEIEIADSKIGTAELGTTVSEVAKTVGNYYPKATVLSVKITGRNQEIVFEY
- soluble fraction (log2): -2.83

Sequence: HMSSEPYISLPRGAAHDAYPLSTKAVAAQLGMSEVWLANLRSKGKGPRYVRVGTRVFYSPEDVAQWRRAT
- soluble fraction (log2): -0.889

Sequence: HMSSESIIIKKLIEEFIHNENKYSPLSDEKLSYLLKNKGFSVARRTVAKYRDELGILSTRERKIKI
- soluble fraction (log2): -0.745

Sequence: HMSSEYARFFSGNYYEVLGVAKNASYDEIKAAWKKLVKEYHPDLHPQRQEEFTKIIQKINEAYEYFKKMH
- soluble fraction (log2): -0.0398

Sequence: HMSSFFLIDVSQVRIGMYIQLDVGWMRHPFPVNSFRITNQEQLDTLRSLNLAQVRWSPAKSDL
- soluble fraction (log2): -3.77

Sequence: HMSSFIEAIKQSGTDSLDVIMKNGRVYRYVGIDADRLGYLLEPHQQKLSLEESIGRFYIDYIKGIYEAIE
- soluble fraction (log2): -1.57

Sequence: HMSSGNLESLLNKLHNEDYFVRLDAVKALGALGDPGAIDYLIEMLSENGIMRGWVANSLAALGEAQWKKII
- soluble fraction (log2): -1.94

Sequence: HMSSHSAEAVRHRIKSMIDHEARDGDVLSDDRIVELLNQAGIDIARRTVAKYREALRIPSSVERKRRLKA
- soluble fraction (log2): 0.0377

Sequence: HMSSKRDQFIVLGQEILEKMFKNEGLEFSEKGLLAVMPNFEAESINDIYAKVGEGLISGWDVMKAVYPAY
- soluble fraction (log2): -0.133

Sequence: HMSSKSLAALSPQEYRLLPLVAEGKTNKEIASALALSDKTVKNYLANIFSKLGITRRTQAATLYARAL
- soluble fraction (log2): -0.167

Sequence: HMSSKYLKIYNDIVGKIDSGIFEANTKLPSESQLMDEYNVSRYTVRKSLNLLEQNGYIEKSKGKGSFVLDM
- soluble fraction (log2): -0.717

Sequence: HMSSLQFVTLTLMEGHAWVGREIQELLMPPQMRIALIRRGDSQVIPKGSTILESADELILSAIEYQG
- soluble fraction (log2): -4.14

Sequence: HMSSLREQVADALRAHLVSGRMRPGVLYSAPKLAAEFGVSATPVREAMLDLVSEGLVDVVRNKGFRVT
- soluble fraction (log2): -0.344

Sequence: HMSSPPNPQLAKRYISYSVDDIARLFGIHRHTVREWIKRGLPVIDQQRPLLVQGADLAEFLRKRRA
- soluble fraction (log2): -0.719

Sequence: HMSSPVIQINTRNDGWIIKLLQPAVEKDVLEGYLADVGLKLQSQMMEKILAAPAGTEFHIKRGSNILTE
- soluble fraction (log2): 0.00933

Sequence: HMSSQADEEALFKLLAANPYSDEQLEEIRIAIGSGIAYKDIIRIADIGNTAERMKQLRLEFTKDTAN
- soluble fraction (log2): -0.0428

Sequence: HMSSQGSLEKGYSALLDGRLDDAALAYGAALAANPMERDALLGLAYVAHSKGRREEAQALYRKVLR
- soluble fraction (log2): 0.0715

Sequence: HMSSSTFVGRVAVITIGEARQNSPAEARFKDRHGTTHYVMVEPMEDVVFKQGDKVLLVESAGATFKVIEPA
- soluble fraction (log2): -0.585

Sequence: HMSSTSISFNDFQKYWLSNDIKSFQLREDKMTVQGSLKNGTAYETVVPSERLFQFIGQHPKD
- soluble fraction (log2): 0.368

Sequence: HMSSVDLLSERERQVLARISRGMSNEEIAAELAITPRTVRNHLANIYGKIDVHSRAEAVVWARERGIT
- soluble fraction (log2): 0.0251

Sequence: HMSSVEQAILETLSKEHSHLTSLQVFEEIRGRLPAVNQSTVYRALERLVEQGVVSVSDMGTHAAVYE
- soluble fraction (log2): -0.177

Sequence: HMSSVMMPDLTGESAIVAMERLQQLGLLPKVEEVDSYREPGIVLEQLPRAGEKIKRGRIAILKVSS
- soluble fraction (log2): -0.26

Sequence: HMSSVTGMERFLSSGAVKGIGKTMAARIVEHFGTETMTVLESFPERLAEVPGIGAKKAEAIGQSYSEISD
- soluble fraction (log2): 0.174

Sequence: HMSSVVARRARIATLVVETSVASQEELGRLLADEGITVTQATLSRDLDALGAVKVLSADGGTRYRIPGQ
- soluble fraction (log2): -0.778

Sequence: HMSSVVVARTWTDTTGDFKVEAELLGVEGGLVRLKKEDGTVLSVPIAKLSTADRTFLQENQP
- soluble fraction (log2): 0.144

Sequence: HMSSWEDNFSYWIRNVAETLDKDLLNVANSKLEKIIINAALDQTNGKKNEAAILLGLGRNTLAKKIKELG
- soluble fraction (log2): -0.858

Sequence: HMSSWEEQLKIWAKNELASGNTDILARATVSFEQILIEAALTHTGGRKKTAAELLGWGRNTLTRKIKELHI
- soluble fraction (log2): -0.29

Sequence: HMSSWEVLAEPIQTVMRRYGVPGAYEKLKEVTRGKSLTAEALHALIRSLDIPQADKERLLALTPAAWA
- soluble fraction (log2): -0.703

Sequence: HMSSYAEVMERSKYLQLHKYKIWKSETDGFWRTYYLNEQGKRKMKKLKHSEDMIDFVIEYVQNNE
- soluble fraction (log2): -2.2

Sequence: HMSTDDILSSITALRLASVQFQLGQFDPALDSLKLVKEQAWSGAKNILAGDIQLAKGDKEAAKASYQQAQQ
- soluble fraction (log2): -0.38

Sequence: HMSTDIPFNIFSQKWNADEIDSIVVENNKIEGKTKDNKKFSTYAPDELLTSLMENHKNPNVIVEFRAP
- soluble fraction (log2): 0.277

Sequence: HMSTDKIDIVSSAILSSLKDNDGFIGLTDKSPPPEIYTAFRVSKKVFKQAIGALYKQRRITLESSGIRLIS
- soluble fraction (log2): -0.193

Sequence: HMSTDSTQLLGFNKTGEELPIYKEANEENKFAEIPQNVYVKNFGQNGEFTKIKYLDQEGYVKTAGLK
- soluble fraction (log2): ≥ 0.62

Sequence: HMSTEEYDRGYEQGLEEAAKADDAWVANLIKIYSQNTPESMPETMKGRLDAFLYEQQRRAQSVPEM
- soluble fraction (log2): 0.307

Sequence: HMSTIAAMADPRAWALEMLGFPPGTVKPSKREIQVRFRESLRDVHPDHGGDSRTASASINDLSEARRVLLS
- soluble fraction (log2): -0.188

Sequence: HMSTLGIRIKHYRTDSNLTQKELAGLINVKRDALANWETDRALPDVMNLKKLAEVFQVSTDELLQV
- soluble fraction (log2): -0.927

Sequence: HMSTLTGTQRAAVVLMQMSPPNAARVMAQFTDAEAEEIAAEIVRLRKVDPEVAEQIMKDFHEAALSS
- soluble fraction (log2): -0.252

Sequence: HMSTLTLTSGTYAVGENIKAGKYTIMGSGSIAISSSGKARVNSNLTADRKDYVLNDDETIKIKGKAQFIPI
- soluble fraction (log2): 0.11

Sequence: HMSTMKIVRVKSNLKIGQEITSKDIEVVEVGAYNMPSEVMKNSEDVIGKYASAEMIKGEYVLAAKISDTP
- soluble fraction (log2): 0.479

Sequence: HMSTMNRLPRHEQILKLVRANGFMPIEELARLLDVTPQTIRRDINTLSEENLLRRFHGGAALGPSVE
- soluble fraction (log2): -0.0842
